{"source": "patent US20120184019A1", "about": "(University of California, published 2012)", "proteins": {"B1": {"name": "Alp8A-GFP fusion protein (Orf250 of Proteus vulgaris plasmid Rts1 fused to GFP) (other)", "chain": "MELLRKGRSFGGLFLIKGKVMNQSERFIVGLDIGYSNVKVACGGTQLLDPKVTIFPAYATPEPESDLALAKKSPDEVKVYPNGTEWRVFTNRVGHRELHESYHSTEMYKALFYGALIKATEGRSDVIDILVTGLPVRIANSEADRSQLCESFTGKHEVTPGRFILVKEVVVLSQGVGIMNDILNTEGLISDEDLEFSNILVIDPGYYSMDYVTFHRGDKKNEFSGSSLNATSVIIEEIVRVLERDYPKEGAQETERIETALRLGNKTFNNGFRSVEIEPLIEEVSHRIVSSVVAELLKRTRSIGPVHIIISAGGGARFYDHFIKEAFPQARILQSVNPVASNSIGYWHYGVNKLSSQSD", "notes": "Produced in E. coli TOP10 from pEB400; also called Rts1 orf250; pPtrcalp8A-gfp product; not shown: GFP from plasmid pDSW210"}, "B2": {"name": "Alp7A-GFP fusion protein (OrfB of Bacillus subtilis natto plasmid pLS20 with C-terminal GFP) (other)", "chain": "MNISRMNVDFGNSMYMNLIDGYFFELPTNVVEISKEAAEGKFTSIVEDPADLKDRLLVSTVIDETERYFLVGELAEPEVLGNQHIKKLHNKVESHIPYVTFLAATAYYQALKGKREDNEVTIEYFQTMLPIWLLKKLDKFSEMQKRMASKFLGTHQVKVLTLGLEKELTIKVEDAACRIESEVARWAIKKNFDLEDKDYAEQFKNYDVVFCDLGGGTDDLVLLPAGLKPPKSRDSFVSNTEAPFLAHLEKLRKEKLLEHFDSVRELEKFIYSNIGKTKMERRDGNTGQKFDLTDIIKKSLKEYTEIKIAQAENTFPAPKDKVYKYLYFGGVGEVLEESISVVTEERYGRDISESNHIVAEDARLLNLYGLEVLSRAEQVKKQANEKEAQSI", "notes": "Observed inside living or fixed E. coli and B. subtilis cells; Not a purified protein; also called pLS20 OrfB; not shown: C-terminal GFP from plasmid pMUTIN-GFP+"}, "B3": {"name": "Alp7A(D212A)-GFP (other)", "chain": "B2 chain with D212A", "notes": "Observed in B. subtilis PY79 cells; also called mini-pLS20alp7A(D212A)-gfp product; not shown: C-terminal GFP from plasmid pMUTIN-GFP+"}, "B4": {"name": "Alp7A(E180A)-GFP (other)", "chain": "B2 chain with E180A", "notes": "Observed in B. subtilis PY79 cells; also called mini-pLS20alp7A(E180A)-gfp product; not shown: C-terminal GFP from plasmid pMUTIN-GFP+"}}, "key": {"[1]": {"molecular_target": "the molecule itself", "test": "self-assembly into filaments, GFP fluorescence microscopy in E. coli"}, "[2]": {"molecular_target": "the molecule itself", "test": "GFP fluorescence microscopy in B. subtilis (self-assembly into filaments)"}, "[3]": {"molecular_target": "the molecule itself", "test": "self-assembly into filaments, GFP fluorescence microscopy, time-lapse and FRAP in B. subtilis"}}, "note": "Substitutions are numbered along the chain they refer to. Names and notes keep the numbering of the source."}
{"protein": "B1", "values": [{"measurement": "binding result", "setting": "[1]", "value": "binds"}]}
{"protein": "B2", "values": [{"measurement": "binding result", "setting": "[1]", "value": "binds"}]}
{"protein": "B3", "values": [{"measurement": "binding result", "setting": "[2]", "value": "no binding"}]}
{"protein": "B4", "values": [{"measurement": "binding result", "setting": "[3]", "value": "binds"}]}
